This note sets out measurements from PMC11142733, “IgG hexamers initiate complement-dependent acute lung injury” (The Journal of Clinical Investigation, 2024).

Like-named read-outs stand apart in the source and are kept apart here.

For orientation: stoichiometry N means a count of units in the complex or per binding partner. A word on the Kd: it is the free concentration of one partner at which half of the binding sites on the other are occupied at equilibrium, for simple one-to-one binding. A higher Kd goes with weaker binding.

Assay [1] has as its target RGY-mutated 34-1-2S (RGY-hIgG1-34-1-2S) (mouse | human). Briefly: negative stain electron microscopy; antibody samples diluted to 0.01 mg/mL in 25 mM HEPES and 100 mM NaCl, on carbon-coated grids, stained with 0.75% uranyl formate; monomer to hexamer in solution.
The target of assay [2] is T1, K^b MHC class I monomer presenting SIINFEKL (mouse | ).
T1 chain 1: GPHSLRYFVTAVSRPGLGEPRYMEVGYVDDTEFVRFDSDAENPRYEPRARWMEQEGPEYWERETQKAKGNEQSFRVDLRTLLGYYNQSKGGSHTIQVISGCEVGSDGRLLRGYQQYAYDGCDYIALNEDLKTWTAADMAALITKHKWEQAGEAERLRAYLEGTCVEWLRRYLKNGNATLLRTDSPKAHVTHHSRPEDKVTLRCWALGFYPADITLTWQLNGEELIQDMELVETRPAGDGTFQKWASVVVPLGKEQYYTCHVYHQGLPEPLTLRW
T1 chain 2: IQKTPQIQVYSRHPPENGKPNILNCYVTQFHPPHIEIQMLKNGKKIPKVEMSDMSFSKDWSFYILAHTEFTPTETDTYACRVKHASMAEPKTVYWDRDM
T1 chain 3: SIINFEKL
Nature of the assay: SPR. (Surface plasmon resonance follows binding to a sensor surface in real time, without labels.)

The target in assay [3] is T2, D^d MHC class I monomer presenting IGPGRAFYA (mouse | ).
T2 chain 1: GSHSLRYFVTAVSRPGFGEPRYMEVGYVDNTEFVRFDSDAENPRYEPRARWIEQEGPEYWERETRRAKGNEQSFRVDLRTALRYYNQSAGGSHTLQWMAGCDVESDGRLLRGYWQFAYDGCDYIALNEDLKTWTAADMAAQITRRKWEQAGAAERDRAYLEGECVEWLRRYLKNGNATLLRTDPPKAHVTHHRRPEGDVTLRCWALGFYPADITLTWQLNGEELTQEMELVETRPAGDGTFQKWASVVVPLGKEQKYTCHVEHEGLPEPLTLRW
T2 chain 2: T1 chain 2
T2 chain 3: IGPGRAFYA
Briefly: SPR.

The target in assay [4] is T3, K^d MHC class I monomer presenting VYLKTNVFL (mouse | ).
T3 chain 1: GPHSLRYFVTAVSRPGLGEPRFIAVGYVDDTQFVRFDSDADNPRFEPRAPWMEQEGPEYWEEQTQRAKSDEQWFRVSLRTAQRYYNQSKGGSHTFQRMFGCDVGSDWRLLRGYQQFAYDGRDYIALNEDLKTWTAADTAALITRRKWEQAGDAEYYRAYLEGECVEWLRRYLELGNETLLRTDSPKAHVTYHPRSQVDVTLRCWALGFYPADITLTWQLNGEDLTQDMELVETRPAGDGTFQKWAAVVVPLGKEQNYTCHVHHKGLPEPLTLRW
T3 chain 2: T1 chain 2
T3 chain 3: VYLKTNVFL
Nature of the assay: SPR.

Assay [5] addresses T4, K^d MHC class I monomer presenting … (Mus musculus, H-2d haplotype (H-2Kd), UniProt P01902;P01887).
T4 construct: mouse MHC class I heavy chain H-2K^d of the bought monomer; beta-2-microglobulin of the bought monomer; presented peptide; Soluble monomer from a supplier
Briefly: SPR; mAbs bound via amine coupling to SensEye G Easy2Spot sensors; serial dilutions (0.5–200 nM) of MHC class I monomers injected; in triplicate; IBIS MX96 SPR imager. To be noted: both partners purified.

Assay [6] concerns the target T5, K^b MHC class I monomer presenting SIINFEKL (Mus musculus, H-2b haplotype (H-2Kb), UniProt P01901;P01887).
T5 construct: mouse MHC class I heavy chain H-2K^b of the bought monomer; beta-2-microglobulin of the bought monomer; presented peptide; Soluble monomer from a supplier; also called K^b MHC class I antigen from H2^b mice; copies: + +
Described as above. The note with it: both partners purified.

Assay [7] has as its target T6, D^b MHC class I monomer presenting … (Mus musculus, H-2b haplotype (H-2Db), UniProt P01899;P01887).
T6 construct: mouse MHC class I heavy chain H-2D^b of the bought monomer; beta-2-microglobulin of the bought monomer; presented peptide; Soluble monomer from a supplier; copies: + +
The description is as above. To be noted: both partners purified.

Assay [8] concerns the target T4, K^d MHC class I monomer presenting ….

B1: RGY-mutated 34-1-2S (RGY-hIgG1-34-1-2S) (antibody, V domains shown)
VH: EVQLQQSGAEFVRPGASVKLSCTASGFNLKDDYMFWVKQRPEQGLEWIGWIAPDNGDTEYASKFQGKATITADTSSNTAYVQLSSLTSEDTAVYYCTTWGYYSYVNYWGQGTTLTVSS
VL: DIQMTQSPSSLSASLGERVSLTCRASQDIGSNLNWLQQEPDGTIKRLIYATYSLDSGVPKRFSGSRSGSDYSLTISSLESEDFVDYYCLQYASSPYTFGGGTKLEIK
B1: the stoichiometry N in assay [1] came out at 6.

B2: MHC class I alloantibody 34-1-2S (mouse IgG2a) (antibody, V domains shown)
VH: B1 VH
VL: B1 VL
notes: heavy-chain variable region of 34-1-2S; mouse IgG2a heavy-chain constant region; light chain variable region of 34-1-2S; light-chain constant region of the mouse antibody; Mouse IgG2a; also called anti-MHC class I clone 34-1-2S; control 34-1-2S; source: bought: Bio X Cell, catalog no; BE0180
B2: the Kd was determined as 2490 nM in assay [2], 30 nM in assay [3] and 9.1 nM in assay [4]. Also, the figures for the binding result in assay [5], in assay [6] and in assay [7] were “binds”, “binds” and “no binding (tested: 0.5–200 nM)”, respectively.

B3: Kd1 (antibody, V domains shown)
VH: EVLLVESGGDLVKPGGSLKLSCAASGFTFRTYAMSWVRQTPEKRLEWVATIGDDGSYTFYPDNVKGRFTISRDNAKNNLYLQMRHLKSEDTAIYFCARDGLFAYWGQGTLVTVSA
VL: DIQMTQSPSSLSASLGGKVTITCKASQDIKKNIAWYQYKPGKGPRLLIHYTSTLQPGISSRFSGSGSGRDYSFSISNLEPEDIATYYCLQYDSLLYTFGGGTKLEIK
Consider B3, for which the binding result in assay [8] is given as “binds”.
